Results: PMC7139218, “Structural Basis for Rab8a Recruitment of RILPL2 via LRRK2 Phosphorylation of Switch 2” (Structure(London, England:1993), 2020)
No end group written: not given here.

Columns and labels:
RILPL2 (Mus musculus) = RILPL2 (Mus musculus) (UniProt Q99LE1); settings: cited from earlier work
[1] = biological target: the molecule itself; assay: crystal structure; pRab8(Q67L):His6-RL2 complex, 1:1 molar ratio of protein:peptide, 12 mg/mL; 100 mM HEPES pH 7, 10% PEG4,000, 10% 2-propanol; 1.8 Å
[2] = biological target: T72 phosphorylated Rab8a(GTP), residues 1-181, Q67L (UniProt P61006); assay: ITC; His6-RILPL2 129-165 (400-600 μM) injected into Rab8a or pRab8a 1-181 (40-60 μM); 10 mM Tris-HCl, 300 mM NaCl, 5 mM MgCl2, 20 mM imidazole, 1 mM DTT; triplicate
T72 phosphorylated Rab8a(GTP), residues 1-181, Q67L, sequence (P61006 1-181 Q67L): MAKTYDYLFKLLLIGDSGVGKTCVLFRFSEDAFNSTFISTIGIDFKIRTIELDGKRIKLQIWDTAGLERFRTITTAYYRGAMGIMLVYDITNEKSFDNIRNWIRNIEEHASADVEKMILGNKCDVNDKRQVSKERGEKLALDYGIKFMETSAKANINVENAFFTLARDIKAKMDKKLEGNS

[3] = biological target: T1, His6-tagged RILPL2 (full length, 1-211) (Homo sapiens (Human), UniProt Q969X0); assay: Ni-agarose pull-down (SDS-PAGE, Coomassie)
T1 chain: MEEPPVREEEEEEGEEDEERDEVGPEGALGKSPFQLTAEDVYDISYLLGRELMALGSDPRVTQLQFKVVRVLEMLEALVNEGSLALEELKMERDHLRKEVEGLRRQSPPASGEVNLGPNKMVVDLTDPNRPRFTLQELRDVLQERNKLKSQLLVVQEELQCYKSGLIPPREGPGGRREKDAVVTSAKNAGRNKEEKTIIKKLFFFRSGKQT

[4] = biological target: the molecule itself; assay: SEC-MALS; static light scattering coupled to gel filtration, Superdex 200 (10/300); full-length RILPL2 with uncleaved polyhistidine tag, 500 μL at 1 mg/mL

RILPL2 (Mus musculus), sequence (Q99LE1 whole entry): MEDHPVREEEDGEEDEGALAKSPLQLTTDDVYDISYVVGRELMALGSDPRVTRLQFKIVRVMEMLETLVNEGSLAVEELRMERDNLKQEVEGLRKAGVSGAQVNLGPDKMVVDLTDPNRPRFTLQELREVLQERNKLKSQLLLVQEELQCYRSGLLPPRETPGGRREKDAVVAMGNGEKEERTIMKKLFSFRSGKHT

In the case of Myosin Va (from UniProt Q99104), the Kd (RILPL2 (Mus musculus)) is listed as 300 nM.

B1: His6-RILPL2 residues 129-165 (phospho-Rab binding domain, minimal RH2 motif) (peptide, UniProt Q969X0 129-165, looked up)
chain: His6-NRPRFTLQELRDVLQERNKLKSQLLVVQEELQCYKSG
notes: Parallel α-helical dimer in the crystal; also called His6-RL2; source: synthetic peptide (Genscript); not shown: His6, N-terminal, kept
For B1, the “stoichiometry N” value [1] was 2 and the Kd [2] was 3300 nM.

B2: globular tail domain (GTD) of myosin Va (1462-1853) (protein)
chain: VNIPRKEKDFQGMLEYKREDEQKLVKNLILELKPRGVAVNLIPGLPAYILFMCVRHADYLNDDQKVRSLLTSTINSIKKVLKKRGDDFETVSFWLSNTCRFLHCLKQYSGEEGFMKHNTSRQNEHCLTNFDLAEYRQVLSDLAIQIYQQLVRVLENILQPMIVSGMLEHETIQGVSGVKPTGLRKRTSSIADEGTYTLDSILRQLNSFHSVMCQHGMDPELIKQVVKQMFYIVGAITLNNLLLRKDMCSWSKGMQIRYNVSQLEEWLRDKNLMNSGAKETLEPLIQAAQLLQVKKKTDDDAEAICSMCNALTTAQIVKVLNLYTPVNEFEERVSVSFIRTIQMRLRDRKDSPQLLMDAKHIFPVTFPFNPSSLALETIQIPASLGLGFIARV
B2: binds [3].

B3: His6-tagged RILPL2 (full length, 1-211) (natural protein, human, UniProt Q969X0 1-211, looked up)
chain: T1 chain
notes: RILPL2, human, full length (1-211), cDNA in pET15b; Dimer in solution by static light scattering coupled to gel filtration; also called full-length RILPL2; source: E. coli, purified (Ni-agarose, gel filtration), polyhistidine tag not removed
With B3 the “stoichiometry N” value [4] was 2.
